Residue numbers refer to the chain shown, from its start.
B1: hAb001H2L1a (antibody, human IgG1, V domains shown)
VH: EVQLVESGGGLVQPGGSLRLSCAASGFSFNTNAMNWVRQAPGKGLEWVGRIRSKSNNYATYYADSVKDRFTISRDDSKSSLYLQMNSLKTEDTAVYYCVRDGYYVLFAYWGQGTLVTVSS
VL: DIVMTQTPLSLPVTPGEPASISCRFSQSIVNSDGNTYLEWFLQKPGQSPQLLIYKVSNRFSGVPDRFSGSGSGTDFTLKISRVEAEDVGVYYCFQGSHVPFTFGQGTKLEIK
notes: Humanized F2.169.2; VH H2 + VL L1a; expressed as human IgG1
B2: hAb007LH2L1 (antibody, human IgG1, V domains shown)
VH: EVQLVQSGAEVKKPGSSVKVSCKASGYTFTDYEMHWVRQAPGQGLEWMGTIDPETGNTAYNQKFKGRVTITADKSTSTAYMELSSLRSEDTAVYYCTRPYSLTYWGQGTLVTVSS
VL: B1 VL with F25S, I29F, N31H, D33N, N35D, E39Q, F41Y, F101Y
notes: Humanized F3.81.19; VH H2 + VL L1; expressed as human IgG1
B3: hAb003LH1L1a (antibody, human IgG1, V domains shown)
VH: B2 VH with T30S, N61T, K65M, G66D, P99G, L102F
VL: B1 VL with F25S, S28N, N31H, E39Q, F41Y, Y54F
notes: Humanized F2.154.1; VH H1 + VL L1a; expressed as human IgG1
B4: hAb003LH3L1 (antibody, human IgG1, V domains shown)
VH: B2 VH with T28R, N61T, K65M, G66D, I70L, P99G, L102F
VL: B1 VL with F25S, S28N, N31H, D33N, E39Q, F41Y, Y54F
notes: Humanized F2.154.1; VH H3 + VL L1; expressed as human IgG1
B5: hAb001H2L1b (antibody, human IgG1, V domains shown)
VH: B1 VH
VL: B1 VL with D33N, G34A
notes: Humanized F2.169.2; VH H2 + VL L1b; expressed as human IgG1
B6: hAb003LH2L1a (antibody, human IgG1, V domains shown)
VH: B2 VH with T28R, N61T, K65M, G66D, P99G, L102F
VL: B1 VL with F25S, S28N, N31H, E39Q, F41Y, Y54F
notes: Humanized F2.154.1; VH H2 + VL L1a; expressed as human IgG1
B7: hAb003LH1L1b (antibody, human IgG1, V domains shown)
VH: B2 VH with T30S, N61T, K65M, G66D, P99G, L102F
VL: B1 VL with F25S, S28N, N31H, D33N, G34R, E39Q, F41Y, Y54F
notes: Humanized F2.154.1; VH H1 + VL L1b; expressed as human IgG1
B8: hAb003LH2L1b (antibody, human IgG1, V domains shown)
VH: B2 VH with T28R, N61T, K65M, G66D, P99G, L102F
VL: B1 VL with F25S, S28N, N31H, D33N, G34R, E39Q, F41Y, Y54F
notes: Humanized F2.154.1; VH H2 + VL L1b; expressed as human IgG1
B9: hAb006LH1L1 (antibody, human IgG1, V domains shown)
VH: B2 VH with T30S, M34I, T50A, E54K, K65M, P99Y, Y100F, L102F, T103A
VL: B1 VL with F25S, S28T, I29F, N31H, D33N, E39Q, F41Y, F101Y
notes: Humanized F3.38.7; VH H1 + VL L1; expressed as human IgG1
B10: hAb003LH1L1 (antibody, human IgG1, V domains shown)
VH: B2 VH with T30S, N61T, K65M, G66D, P99G, L102F
VL: B1 VL with F25S, S28N, N31H, D33N, E39Q, F41Y, Y54F
notes: Humanized F2.154.1; VH H1 + VL L1; expressed as human IgG1
B11: hAb003LH2L1 (antibody, human IgG1, V domains shown)
VH: B2 VH with T28R, N61T, K65M, G66D, P99G, L102F
VL: B1 VL with F25S, S28N, N31H, D33N, E39Q, F41Y, Y54F
notes: Humanized F2.154.1; VH H2 + VL L1; expressed as human IgG1

Target: biotinylated labeled human GPC3 protein (produced in-house) (human, UniProt P51654 25-559, limits assumed, biotinylated (Dojindo, Cat. No. LK03); sites not stated)
Assay: ELISA, biotinylated human GPC3 protein

Compared with B1, B2 is higher in “OD450 at 0.0008 nM” value: 0.096 OD450 for the first, 0.121 OD450 for the second.

Going from B3 to B4, the “OD450 at 0.0008 nM” value rises from 0.082 OD450 to 0.137 OD450.

Going from B5 to B6, the “OD450 at 0.0008 nM” value falls from 0.154 OD450 to 0.088 OD450.

First: B7
Second: B8
The “OD450 at 0.0008 nM” value of the first is lower: 0.147 OD450 for the first, 0.171 OD450 for the second.

First: B9
Second: B10
The “OD450 at 0.0008 nM” value of the first is lower: 0.117 OD450 for the first, 0.16 OD450 for the second.

In the case of B11, the “OD450 at 0.0008 nM” value is reported as 0.151 OD450.

Compared with B1, B2 is higher in “OD450 at 0.004 nM” value: 0.141 OD450 for the first, 0.233 OD450 for the second.

Compared with B3, B4 is higher in “OD450 at 0.004 nM” value: 0.115 OD450 for the first, 0.297 OD450 for the second.

Compared with B5, B6 is lower in “OD450 at 0.004 nM” value: 0.287 OD450 for the first, 0.146 OD450 for the second.

Going from B7 to B8, the “OD450 at 0.004 nM” value rises from 0.371 OD450 to 0.372 OD450.

Compared with B9, B10 is higher in “OD450 at 0.004 nM” value: 0.365 OD450 for the first, 0.427 OD450 for the second.

In the case of B11, the “OD450 at 0.004 nM” value is reported as 0.376 OD450.

First: B1
Second: B2
The “OD450 at 0.02 nM” value of the first is lower: 0.437 OD450 for the first, 0.654 OD450 for the second.

Compared with B3, B4 is higher in “OD450 at 0.02 nM” value: 0.334 OD450 for the first, 0.915 OD450 for the second.

Going from B5 to B6, the “OD450 at 0.02 nM” value falls from 0.787 OD450 to 0.423 OD450.

Compared with B7, B8 is lower in “OD450 at 0.02 nM” value: 1.11 OD450 for the first, 1.05 OD450 for the second.

Compared with B9, B10 is higher in “OD450 at 0.02 nM” value: 1.05 OD450 for the first, 1.19 OD450 for the second.

In the case of B11, the “OD450 at 0.02 nM” value is reported as 1.03 OD450.

Going from B1 to B2, the “OD450 at 0.11 nM” value rises from 1.53 OD450 to 1.72 OD450.

First: B3
Second: B4
The “OD450 at 0.11 nM” value of the first is lower: 1.12 OD450 for the first, 1.89 OD450 for the second.

First: B5
Second: B6
The “OD450 at 0.11 nM” value of the first is higher: 1.94 OD450 for the first, 1.18 OD450 for the second.

Going from B7 to B8, the “OD450 at 0.11 nM” value falls from 2.1 OD450 to 1.97 OD450.

First: B9
Second: B10
The “OD450 at 0.11 nM” value of the first is lower: 1.9 OD450 for the first, 2.15 OD450 for the second.

In the case of B11, the “OD450 at 0.11 nM” value is reported as 1.98 OD450.

Going from B1 to B2, the “OD450 at 0.53 nM” value falls from 2.27 OD450 to 2.26 OD450.

First: B3
Second: B4
The “OD450 at 0.53 nM” value of the first is lower: 1.97 OD450 for the first, 2.26 OD450 for the second.

Going from B5 to B6, the “OD450 at 0.53 nM” value falls from 2.46 OD450 to 1.9 OD450.

Compared with B7, B8 is higher in “OD450 at 0.53 nM” value: 2.35 OD450 for the first, 2.44 OD450 for the second.

Compared with B9, B10 is higher in “OD450 at 0.53 nM” value: 2.39 OD450 for the first, 2.5 OD450 for the second.

B11 was tested, and the “OD450 at 0.53 nM” value was 2.43 OD450.

Going from B1 to B2, the “OD450 at 2.67 nM” value falls from 2.42 OD450 to 2.26 OD450.

Compared with B3, B4 is higher in “OD450 at 2.67 nM” value: 2.27 OD450 for the first, 2.56 OD450 for the second.

First: B5
Second: B6
The “OD450 at 2.67 nM” value of the first is higher: 2.52 OD450 for the first, 2.14 OD450 for the second.

Compared with B7, B8 is lower in “OD450 at 2.67 nM” value: 2.5 OD450 for the first, 2.39 OD450 for the second.

Going from B9 to B10, the “OD450 at 2.67 nM” value rises from 2.36 OD450 to 2.47 OD450.

In the case of B11, the “OD450 at 2.67 nM” value is reported as 2.47 OD450.

Compared with B1, B2 is lower in “OD450 at 13.33 nM” value: 2.57 OD450 for the first, 2.33 OD450 for the second.

Compared with B3, B4 is higher in “OD450 at 13.33 nM” value: 2.21 OD450 for the first, 2.3 OD450 for the second.

First: B5
Second: B6
The “OD450 at 13.33 nM” value of the first is higher: 2.53 OD450 for the first, 2.18 OD450 for the second.

Going from B7 to B8, the “OD450 at 13.33 nM” value rises from 2.44 OD450 to 2.5 OD450.

Compared with B9, B10 is higher in “OD450 at 13.33 nM” value: 2.42 OD450 for the first, 2.57 OD450 for the second.

B11 was tested, and the “OD450 at 13.33 nM” value was 2.53 OD450.

Compared with B1, B2 is lower in “OD450 at 66.66 nM” value: 2.58 OD450 for the first, 2.32 OD450 for the second.

First: B3
Second: B4
The “OD450 at 66.66 nM” value of the first is higher: 2.45 OD450 for the first, 2.39 OD450 for the second.

Going from B5 to B6, the “OD450 at 66.66 nM” value falls from 2.67 OD450 to 2.34 OD450.

Compared with B7, B8 is lower in “OD450 at 66.66 nM” value: 2.65 OD450 for the first, 2.6 OD450 for the second.

Compared with B9, B10 is higher in “OD450 at 66.66 nM” value: 2.43 OD450 for the first, 2.49 OD450 for the second.

B11 was tested, and the “OD450 at 66.66 nM” value was 2.54 OD450.

Target: T1, human GPC3 on CHO-K1-human GPC3 cells (CHOK1-hGPC3.2B5) (human, UniProt P51654 25-554)
T1 construct: whole, on cells
Assay: FACS, CHOK1-hGPC3.2B5 cells;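 note: flow cytometry of humanized antibodies binding to the cells over one hour in the cold, read as cell mean fluorescence intensity, with EC50 obtained by curve fitting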
Protocol: The desired cells were expanded to a logarithmic growth phase in a T-75 cell culture flask, the medium was removed by pipetting, and the cells were washed twice with a PBS buffer, and digested with trypsin. Then a complete medium was added to stop the digestion, and the cells were blown into a single cell suspension. After counting, the cells were centrifuged, and the cell pellet was resuspended with an FACS buffer (PBS+2% fetal bovine serum) to 2×10⁶ cells/mL. The cell resuspension solution was added to a 96-well FACS reaction plate at 50 μl/well, and a humanized antibody sample to be tested was added at 50 μl/well for incubation at 4° C. for 1 h. […] After the plate was centrifuged and washed 3 times with a PBS buffer, 100 μl of the resulting solution was assayed and analyzed by FACS (FACS Canto™, purchased from BD Biosciences). Data analysis was performed by software (FlowJo) to obtain the mean fluorescence intensity (MFI) of the cells. Then, analysis was performed by software (GraphPad Prism8), data were fitted, and EC₅₀ values were calculated.

B1 and B2 are within 1.5-fold of each other in EC50: 6.17 nM for the first, 6.56 nM for the second.

Compared with B3, B4 is 42-fold lower in EC50: 45.1 nM for the first, 1.08 nM for the second.

First: B5
Second: B6
The EC50 of the first is 25-fold lower: 0.455 nM for the first, 11.6 nM for the second. The first is the more potent here.

First: B7
Second: B8
The EC50 of the first is 2.1-fold higher: 1.2 nM for the first, 0.584 nM for the second. The second is the more potent here.

First: B9
Second: B10
The EC50 of the first is 1.6-fold lower: 0.906 nM for the first, 1.42 nM for the second. The first is the more potent here.

With B11 the EC50 was 1.07 nM.

Going from B1 to B2, the “Max MFI” value rises from 2550 MFI to 6190 MFI.

Compared with B3, B4 is higher in “Max MFI” value: 2070 MFI for the first, 5040 MFI for the second.

First: B5
Second: B6
The “Max MFI” value of the first is higher: 3370 MFI for the first, 1770 MFI for the second.

First: B7
Second: B8
The “Max MFI” value of the first is higher: 5010 MFI for the first, 5000 MFI for the second.

Going from B9 to B10, the “Max MFI” value rises from 4780 MFI to 5220 MFI.

B11 was tested, and the “Max MFI” value was 5140 MFI.

— US20260116991A1 (HAINAN SIMCERE ZAIMING PHARMACEUTICAL, published 2026)
